Patent US7888089B2, “eNOS mutations useful for gene therapy and therapeutic screening” (Yale University, priority 1999, dated 2011)

What was measured:
COS-7 cells = assay: NO release (NO2−, chemiluminescence) from transfected COS cells; type: cell-based; details: for Akt dependent NO release / activation of NOS construct: NOS construct co-transfected with Akt; for NO2− accumulation on co-transfection with eNOS: Akt construct co-transfected with eNOS, FIG. 1A
Text: Cell Transfections: The bovine eNOS, human iNOS, rat nNOS cDNAs in pcDNA3 and HA-tagged wild-type Akt, Akt (K179M) or myr-Akt in pCMV6 were generated by standard cloning methods. The myr-nNOS in pcDNA3 was generated by PCR, incorporating a new amino terminus containing the eNOS N-myristoylation consensus site (MGNLKSVG, SEQ ID NO:1) fused in frame to the second amino acid of the nNOS coding sequence. […] Mutation of the putative Akt phosphorylation sites in eNOS were generated using the Quick Change site-directed mutagenesis kit (Stratagene) according to the manufacturers instructions. All mutants were verified by DNA sequencing. COS-7 cells were plated (100 mm dish) and transfected with the NOS (7.5-30 mg) and Akt (1 mg) plasmids using calcium phosphate. To balance all transfections, the expression vector for β-galactosidase cDNA was used. Twenty-four to forty-eight hours after transfection, the expression of appropriate proteins (40-80 mg) were confirmed by Western blot analysis using eNOS mAb (9D10, Zymed), HA mAb (12CA5, Boehringer Mannheim), iNOS pAb (Zymed Laboratories) or nNOS mAb (Zymed Laboratories).
NO release from transfected COS cells: 24-48 hrs after transfection, media was processed for the measurement of nitrite (NO2^−), the stable breakdown product of NO in aqueous solution, by NO specific chemiluminescence as described (Sessa et al., 1995). Media was deproteinized and samples containing NO2^− were refluxed in glacial acetic acid containing sodium iodide. […] In all experiments, NO2^− release was inhibitable by a NOS inhibitor. In addition, NO2^−-release from cells transfected with the β-galactosidase cDNA was subtracted to control for background levels of NO2^− found in serum or media. In some experiments, cGMP accumulation in COS was used as a bioassay for the production of NO as described.

Akt [1] = assay: In vitro kinase reaction with Akt immunoprecipitated from COS cells; type: biochemical; details: immunoprecipitated kinase
eNOS = assay: NOS activity (3H-L-arginine to 3H-L-citrulline) in COS cell lysates; type: biochemical, bovine; details: COS cells transfected with eNOS only, n=3
Text: NOS activity assays: The conversion of ^3H-L-arginine to ^3H-L-citrulline was used to determine NOS activity in COS cell or endothelial cell lysates as previously described by Garcia-Cardena et al. (1998).

Akt [2] = molecular target: T1, Akt (Homo sapiens, UniProt P31749); assay: In vitro phosphorylation of purified eNOS by recombinant Akt; type: biochemical; details: FIG. 2D
T1 construct: host or cells: baculovirus-infected SF9 cells (Akt); peptides synthesized at the W. M. Keck Biotechnology Resource Center
Procedure: In experiments examining the in vitro phosphorylation of wild-type and mutant eNOS, recombinant Akt (1 mg) purified from baculovirus infected SF9 cells, was incubated with wild-type or S1179A eNOS (2.4 mg, purified from E. coli) using essentially the same conditions as above. Proteins were resolved by SDS-PAGE and ^32P incorporation and the amount of protein determined by Coomassie staining as above.

Akt [3] = assay: 32P phosphorylation of eNOS in intact transfected COS cells; type: cell-based; details: eNOS/Akt transfected COS cells; wortmannin 500 nM
Procedure: Phosphorylation studies in vivo and in vitro: For in vivo phosphorylation studies, COS cells were transfected with the cDNAs for wild-type or S635, 1179A eNOS and HA-Akt overnight. 36 hrs after transfection, cells were placed into dialyzed serum replete, phosphate-free Dulbecco's minimum essential medium supplemented with 80 μCi/ml of ^32P orthophosphoric acid for 3 hr. Some cells were pretreated with wortmannin (500 nM) in the phosphate-free media for 1 hr and during the labeling.

T1 sequence (P31749 whole entry): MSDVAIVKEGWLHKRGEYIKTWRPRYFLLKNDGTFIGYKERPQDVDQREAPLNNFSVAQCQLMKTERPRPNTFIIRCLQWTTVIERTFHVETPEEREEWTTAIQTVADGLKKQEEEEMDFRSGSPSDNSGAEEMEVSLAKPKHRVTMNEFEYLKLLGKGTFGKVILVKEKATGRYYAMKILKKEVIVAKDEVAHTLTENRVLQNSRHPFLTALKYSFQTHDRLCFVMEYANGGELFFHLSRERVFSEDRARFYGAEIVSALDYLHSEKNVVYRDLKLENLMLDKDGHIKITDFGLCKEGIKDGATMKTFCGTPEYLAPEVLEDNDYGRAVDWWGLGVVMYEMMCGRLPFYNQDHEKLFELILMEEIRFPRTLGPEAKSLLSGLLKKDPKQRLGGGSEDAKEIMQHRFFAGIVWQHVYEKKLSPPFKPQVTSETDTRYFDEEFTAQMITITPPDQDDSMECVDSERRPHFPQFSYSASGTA

Molecule: iNOS: human inducible NOS [reference compound]
- Akt dependent NO release / activation of NOS construct (COS-7 cells): did not result in a further increase in NO release

Molecule: kinase inactive Akt: kinase inactive Akt (K179M) [reference compound]
- NO2− accumulation on co-transfection with eNOS (COS-7 cells): not
- histone or eNOS phosphorylation by Akt variant (Akt [1]): did not significantly increase histone or eNOS phosphorylation

Molecule: myr-nNOS: nNOS with new amino terminus containing the eNOS N-myristoylation consensus site (MGNLKSVG)
- Akt dependent NO release / activation of NOS construct (COS-7 cells): results in Akt stimulation of nNOS

Molecule: nNOS: rat neuronal NOS [reference compound]
- Akt dependent NO release / activation of NOS construct (COS-7 cells): did not result in a further increase in NO release

Molecule: wild-type Akt: HA-tagged wild-type Akt (protein kinase B) [reference compound]
- NO2− accumulation on co-transfection with eNOS (COS-7 cells): markedly enhanced

B1: G2A eNOS: myristoylation, palmitoylation defective mutant of eNOS (protein)
chain: ANLKSVGQEPGPPCGLGLGLGLGLCGKQGPASPAPEPSRAPAPATPHAPDHSPAPNSPTLTRPPEGPKFPRVKNWELGSITYDTLCAQSQQDGPCTPRCCLGSLVLPRKLQTRPSPGPPPAEQLLSQARDFINQYYSSIKRSGSQAHEERLQEVEAEVASTGTYHLRESELVFGAKQAWRNAPRCVGRIQWGKLQVFDARDCSSAQEMFTYICNHIKYATNRGNLRSAITVFPQRAPGRGDFRIWNSQLVRYAGYRQQDGSVRGDPANVEITELCIQHGWTPGNGRFDVLPLLLQAPDEAPELFVLPPELVLEVPLEHPTLEWFAALGLRWYALPAVSNMLLEIGGLEFSAAPFSGWYMSTEIGTRNLCDPHRYNILEDVAVCMDLDTRTTSSLWKDKAAVEINLAVLHSFQLAKVTIVDHHAATVSFMKHLDNEQKARGGCPADWAWIVPPISGSLTPVFHQEMVNYILSPAFRYQPDPWKGSATKGAGITRKKTFKEVANAVKISASLMGTLMAKRVKATILYASETGRAQSYAQQLGRLFRKAFDPRVLCMDEYDVVSLEHEALVLVVTSTFGNGDPPENGESFAAALMEMSGPYNSSPRPEQHKSYKIRFNSVSCSDPLVSSWRRKRKESSNTDSAGALGTLRFCVFGLGSRAYPHFCAFARAVDTRLEELGGERLLQLGQGDELCGQEEAFRGWAKAAFQASCETFCVGEEAKAAAQDIFSPKRSWKRQRYRLSTQAEGLQLLPGLIHVHRRKMFQATVLSVENLQSSKSTRATILVRLDTAGQEGLQYQPGDHIGICPPNRPGLVEALLSRVEDPPPPTESVAVEQLEKGSPGGPPPSWVRDPRLPPCTLRQALTFFLDITSPPSPRLLRLLSTLAEEPSEQQELETLSQDPRRYEEWKWFRCPTLLEVLEQFPSVALPAPLLLTQLPLLQPRYYSVSSAPNAHPGEVHLTVAVLAYRTQDGLGPLHYGVCSTWLSQLKTGDPVPCFIRGAPSFRLPPDPYVPCILVGPGTGIAPFRGFWQERLHDIESKGLQPAPMTLVFGCRCSQLDHLYRDEVQDAQERGVFGRVLTAFSREPDSPKTYVQDILRTELAAEVHRVLCLERGHMFVCGDVTMATSVLQTVQRILATEGDMELDEAGDVIGVLRDQQRYHEDIFGLTLRTQEVTSRIRTQSFSLQERHLRGAVPWAFDPPGPDTPGP
- Akt dependent NO release / activation of NOS construct (COS-7 cells): did not activate

B2: S1179A: bovine eNOS with serine 1179 mutated to alanine (protein)
chain: GNLKSVGQEPGPPCGLGLGLGLGLCGKQGPASPAPEPSRAPAPATPHAPDHSPAPNSPTLTRPPEGPKFPRVKNWELGSITYDTLCAQSQQDGPCTPRCCLGSLVLPRKLQTRPSPGPPPAEQLLSQARDFINQYYSSIKRSGSQAHEERLQEVEAEVASTGTYHLRESELVFGAKQAWRNAPRCVGRIQWGKLQVFDARDCSSAQEMFTYICNHIKYATNRGNLRSAITVFPQRAPGRGDFRIWNSQLVRYAGYRQQDGSVRGDPANVEITELCIQHGWTPGNGRFDVLPLLLQAPDEAPELFVLPPELVLEVPLEHPTLEWFAALGLRWYALPAVSNMLLEIGGLEFSAAPFSGWYMSTEIGTRNLCDPHRYNILEDVAVCMDLDTRTTSSLWKDKAAVEINLAVLHSFQLAKVTIVDHHAATVSFMKHLDNEQKARGGCPADWAWIVPPISGSLTPVFHQEMVNYILSPAFRYQPDPWKGSATKGAGITRKKTFKEVANAVKISASLMGTLMAKRVKATILYASETGRAQSYAQQLGRLFRKAFDPRVLCMDEYDVVSLEHEALVLVVTSTFGNGDPPENGESFAAALMEMSGPYNSSPRPEQHKSYKIRFNSVSCSDPLVSSWRRKRKESSNTDSAGALGTLRFCVFGLGSRAYPHFCAFARAVDTRLEELGGERLLQLGQGDELCGQEEAFRGWAKAAFQASCETFCVGEEAKAAAQDIFSPKRSWKRQRYRLSTQAEGLQLLPGLIHVHRRKMFQATVLSVENLQSSKSTRATILVRLDTAGQEGLQYQPGDHIGICPPNRPGLVEALLSRVEDPPPPTESVAVEQLEKGSPGGPPPSWVRDPRLPPCTLRQALTFFLDITSPPSPRLLRLLSTLAEEPSEQQELETLSQDPRRYEEWKWFRCPTLLEVLEQFPSVALPAPLLLTQLPLLQPRYYSVSSAPNAHPGEVHLTVAVLAYRTQDGLGPLHYGVCSTWLSQLKTGDPVPCFIRGAPSFRLPPDPYVPCILVGPGTGIAPFRGFWQERLHDIESKGLQPAPMTLVFGCRCSQLDHLYRDEVQDAQERGVFGRVLTAFSREPDSPKTYVQDILRTELAAEVHRVLCLERGHMFVCGDVTMATSVLQTVQRILATEGDMELDEAGDVIGVLRDQQRYHEDIFGLTLRTQEVTSRIRTQAFSLQERHLRGAVPWAFDPPGPDTPGP
- NOS activity in lysates (eNOS): 71.9±2.9 pmol L-citrulline generated/mg protein
- Akt dependent NO release / activation of NOS construct (COS-7 cells): abolishes Akt dependent activation of eNOS
- Akt-dependent phosphorylation compared to the wild-type protein (Akt [2]): markedly reduces

B3: S635, 1179A: double serine mutant of eNOS, serines 635 and 1179 mutated to alanine (protein)
chain: GNLKSVGQEPGPPCGLGLGLGLGLCGKQGPASPAPEPSRAPAPATPHAPDHSPAPNSPTLTRPPEGPKFPRVKNWELGSITYDTLCAQSQQDGPCTPRCCLGSLVLPRKLQTRPSPGPPPAEQLLSQARDFINQYYSSIKRSGSQAHEERLQEVEAEVASTGTYHLRESELVFGAKQAWRNAPRCVGRIQWGKLQVFDARDCSSAQEMFTYICNHIKYATNRGNLRSAITVFPQRAPGRGDFRIWNSQLVRYAGYRQQDGSVRGDPANVEITELCIQHGWTPGNGRFDVLPLLLQAPDEAPELFVLPPELVLEVPLEHPTLEWFAALGLRWYALPAVSNMLLEIGGLEFSAAPFSGWYMSTEIGTRNLCDPHRYNILEDVAVCMDLDTRTTSSLWKDKAAVEINLAVLHSFQLAKVTIVDHHAATVSFMKHLDNEQKARGGCPADWAWIVPPISGSLTPVFHQEMVNYILSPAFRYQPDPWKGSATKGAGITRKKTFKEVANAVKISASLMGTLMAKRVKATILYASETGRAQSYAQQLGRLFRKAFDPRVLCMDEYDVVSLEHEALVLVVTSTFGNGDPPENGESFAAALMEMSGPYNSSPRPEQHKSYKIRFNSVSCSDPLVSSWRRKRKEASNTDSAGALGTLRFCVFGLGSRAYPHFCAFARAVDTRLEELGGERLLQLGQGDELCGQEEAFRGWAKAAFQASCETFCVGEEAKAAAQDIFSPKRSWKRQRYRLSTQAEGLQLLPGLIHVHRRKMFQATVLSVENLQSSKSTRATILVRLDTAGQEGLQYQPGDHIGICPPNRPGLVEALLSRVEDPPPPTESVAVEQLEKGSPGGPPPSWVRDPRLPPCTLRQALTFFLDITSPPSPRLLRLLSTLAEEPSEQQELETLSQDPRRYEEWKWFRCPTLLEVLEQFPSVALPAPLLLTQLPLLQPRYYSVSSAPNAHPGEVHLTVAVLAYRTQDGLGPLHYGVCSTWLSQLKTGDPVPCFIRGAPSFRLPPDPYVPCILVGPGTGIAPFRGFWQERLHDIESKGLQPAPMTLVFGCRCSQLDHLYRDEVQDAQERGVFGRVLTAFSREPDSPKTYVQDILRTELAAEVHRVLCLERGHMFVCGDVTMATSVLQTVQRILATEGDMELDEAGDVIGVLRDQQRYHEDIFGLTLRTQEVTSRIRTQAFSLQERHLRGAVPWAFDPPGPDTPGP
- NOS activity in lysates (eNOS): 80.8±23.2 pmol L-citrulline generated/mg protein
- Akt dependent phosphorylation of eNOS in intact cells (Akt [3]): abolished Akt dependent phosphorylation of eNOS
- Akt dependent NO release / activation of NOS construct (COS-7 cells): abolishes Akt dependent NO release
